Values quoted from earlier work in publication doi:10.1101/2025.05.21.655333.

Biological target: Lys287 (UniProt position 287, GGQGLKILIHV)
Assay: kinetics
Conditions: The kcat/Km profile reports on free enzyme and free substrate

Q: With “L-6-hydroxynicotine oxidase (Pyridine-LHNO) (Paenarthrobacter nicotinovorans)” as the substance, how does the pKa read?
A: 9.7
